Laboratory results as given in IntAct's records for PubMed 12193598.

B1: Palmitoyltransferase ERF2 (Saccharomyces cerevisiae), Q06551 (parent)
chain: MALVSRRSTRSESTSITKEEHTGEGSLTKLFFRWLVTLEGDQDINDGKGYISLPNVSNYIFFLGGRFRTVKGAKPLWLGVLLAIVCPMVLFSIFEAHKLWHTQNGYKVLVIFFYYFWVITLASFIRTATSDPGVLPRNIHLSQLRNNYQIPQEYYNLITLPTHSSISKDITIKYCPSCRIWRPPRSSHCSTCNVCVMVHDHHCIWVNNCIGKRNYRFFLIFLLGAILSSVILLTNCAIHIARESGGPRDCPVAILLLCYAGLTLWYPAILFTYHIFMAGNQQTTREFLKGIGSKKNPVFHRVVKEENIYNKGSFLKNMGHLMLEPRGPSFVSARKPHEAGDWRFMDLSPAHSFEKIQKI
partner: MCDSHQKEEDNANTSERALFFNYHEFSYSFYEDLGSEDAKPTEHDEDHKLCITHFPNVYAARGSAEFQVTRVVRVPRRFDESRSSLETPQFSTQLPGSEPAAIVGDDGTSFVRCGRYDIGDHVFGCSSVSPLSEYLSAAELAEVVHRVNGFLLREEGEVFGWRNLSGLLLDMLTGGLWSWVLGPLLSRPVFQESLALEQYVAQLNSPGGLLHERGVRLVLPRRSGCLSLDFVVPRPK

Variants of: B1
Details: with erfd_yeast SHR5, P41912

Variant | effect of a mutation on the interaction
MALVSRRSTRSESTSITKEEHTGEGSLTKLFFRWLVTLEGDQDINDGKGYISLPNVSNYIFFLGGRFRTVKGAKPLWLGVLLAIVCPMVLFSIFEAHKLWHTQNGYKVLVIFFYYFWVITLASFIRTATSDPGVLPRNIHLSQLRNNYQIPQEYYNLITLPTHSSISKDITIKYCPSCRIWRPPRSSHCSTCNVCVMVHDAHCIWVNNCIGKRNYRFFLIFLLGAILSSVILLTNCAIHIARESGGPRDCPVAILLLCYAGLTLWYPAILFTYHIFMAGNQQTTREFLKGIGSKKNPVFHRVVKEENIYNKGSFLKNMGHLMLEPRGPSFVSARKPHEAGDWRFMDLSPAHSFEKIQKI [H201A] | with no effect
MALVSRRSTRSESTSITKEEHTGEGSLTKLFFRWLVTLEGDQDINDGKGYISLPNVSNYIFFLGGRFRTVKGAKPLWLGVLLAIVCPMVLFSIFEAHKLWHTQNGYKVLVIFFYYFWVITLASFIRTATSDPGVLPRNIHLSQLRNNYQIPQEYYNLITLPTHSSISKDITIKYCPSCRIWRPPRSSHSSTCNVCVMVHDHHCIWVNNCIGKRNYRFFLIFLLGAILSSVILLTNCAIHIARESGGPRDCPVAILLLCYAGLTLWYPAILFTYHIFMAGNQQTTREFLKGIGSKKNPVFHRVVKEENIYNKGSFLKNMGHLMLEPRGPSFVSARKPHEAGDWRFMDLSPAHSFEKIQKI [C189S] | disrupting interaction strength
